Data: the supplement of paper PMC9112550, “Optimization of the antimicrobial peptide Bac7 by deep mutational scanning” (BMC Biology, 2022)

Tested on: Escherichia coli TOP10
Experiment: shrunken log2 fold change of peptide-encoding DNA abundance (4.5 h post-induction vs induction); higher = less antimicrobial activity (less host growth inhibition)
Details: time post-induction: 4.5 h; library: site-saturation at positions 5, 18, 19, 20
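Note: peptides expressed intracellularly from a pBAD plasmid library in pooled LB shake-flask culture, induced with 0.3% L-arabinose, DNA abundance read by NGS, three biological replicates, DESeq2 with apeglm shrinkage.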

Sequence: RRIRLRPPRLPRPRPRPMELPRP
- shrunken log2 fold change: -0.00973

Sequence: RRIRYRPPRLPRPRPRPKFGPRP
- shrunken log2 fold change: -0.000463

Sequence: RRIRCRPPRLPRPRPRPGETPRP
- shrunken log2 fold change: 0.238

Sequence: RRIRFRPPRLPRPRPRPPIGPRP
- shrunken log2 fold change: -0.229

Sequence: RRIRERPPRLPRPRPRPLWMPRP
- shrunken log2 fold change: 0.00675

Sequence: RRIRNRPPRLPRPRPRPGRGPRP
- shrunken log2 fold change: 0.918

Sequence: RRIRHRPPRLPRPRPRPVCCPRP
- shrunken log2 fold change: -0.0885

Sequence: RRIRTRPPRLPRPRPRPLKFPRP
- shrunken log2 fold change: -0.27

Sequence: RRIRYRPPRLPRPRPRPDWMPRP
- shrunken log2 fold change: 0.0748

Sequence: RRIRTRPPRLPRPRPRPDDMPRP
- shrunken log2 fold change: -0.0233

Sequence: RRIRVRPPRLPRPRPRPFEDPRP
- shrunken log2 fold change: -0.151

Sequence: RRIRMRPPRLPRPRPRPCFQPRP
- shrunken log2 fold change: -0.0397

Sequence: RRIRMRPPRLPRPRPRPMPTPRP
- shrunken log2 fold change: 2.8

Sequence: RRIRSRPPRLPRPRPRPGGRPRP
- shrunken log2 fold change: 0.284

Sequence: RRIRCRPPRLPRPRPRPQDDPRP
- shrunken log2 fold change: 0.0976

Sequence: RRIRRRPPRLPRPRPRPNNPPRP
- shrunken log2 fold change: 0.0225

Sequence: RRIRVRPPRLPRPRPRPDIVPRP
- shrunken log2 fold change: -0.229

Sequence: RRIRWRPPRLPRPRPRPVEVPRP
- shrunken log2 fold change: -0.0825

Sequence: RRIRPRPPRLPRPRPRPWNWPRP
- shrunken log2 fold change: 0.3

Sequence: RRIRLRPPRLPRPRPRPVINPRP
- shrunken log2 fold change: -0.686

Sequence: RRIRERPPRLPRPRPRPKKTPRP
- shrunken log2 fold change: -0.0747

Sequence: RRIRARPPRLPRPRPRPYDEPRP
- shrunken log2 fold change: -0.0107

Sequence: RRIRCRPPRLPRPRPRPNCPPRP
- shrunken log2 fold change: -0.413

Sequence: RRIRPRPPRLPRPRPRPHWIPRP
- shrunken log2 fold change: -0.212

Sequence: RRIRLRPPRLPRPRPRPLRHPRP
- shrunken log2 fold change: 0.171

Sequence: RRIRTRPPRLPRPRPRPSANPRP
- shrunken log2 fold change: -0.0622

Sequence: RRIRIRPPRLPRPRPRPTLTPRP
- shrunken log2 fold change: -0.13

Sequence: RRIRYRPPRLPRPRPRPLSIPRP
- shrunken log2 fold change: -0.129

Sequence: RRIRMRPPRLPRPRPRPQMMPRP
- shrunken log2 fold change: 0.443

Sequence: RRIRMRPPRLPRPRPRPEKKPRP
- shrunken log2 fold change: 0.104

Sequence: RRIRYRPPRLPRPRPRPTHCPRP
- shrunken log2 fold change: 0.0602

Sequence: RRIRRRPPRLPRPRPRPEVNPRP
- shrunken log2 fold change: -0.0845

Sequence: RRIRQRPPRLPRPRPRPQIIPRP
- shrunken log2 fold change: -0.0763

Sequence: RRIRLRPPRLPRPRPRPHWVPRP
- shrunken log2 fold change: -0.189

Sequence: RRIRGRPPRLPRPRPRPYYQPRP
- shrunken log2 fold change: -0.537

Sequence: RRIRTRPPRLPRPRPRPAIRPRP
- shrunken log2 fold change: 0.00208

Sequence: RRIRERPPRLPRPRPRPALNPRP
- shrunken log2 fold change: 0.0441

Sequence: RRIRERPPRLPRPRPRPGHYPRP
- shrunken log2 fold change: -0.121

Sequence: RRIRKRPPRLPRPRPRPDYRPRP
- shrunken log2 fold change: -0.157

Sequence: RRIRWRPPRLPRPRPRPYYGPRP
- shrunken log2 fold change: -0.0686

Sequence: RRIRIRPPRLPRPRPRPIRPPRP
- shrunken log2 fold change: -0.277

Sequence: RRIRHRPPRLPRPRPRPGPTPRP
- shrunken log2 fold change: 0.146

Sequence: RRIRGRPPRLPRPRPRPYPMPRP
- shrunken log2 fold change: -0.142

Sequence: RRIRHRPPRLPRPRPRPCCLPRP
- shrunken log2 fold change: -0.82

Sequence: RRIRHRPPRLPRPRPRPPCHPRP
- shrunken log2 fold change: -0.253

Sequence: RRIRWRPPRLPRPRPRPRSKPRP
- shrunken log2 fold change: 0.118

Sequence: RRIRSRPPRLPRPRPRPYMKPRP
- shrunken log2 fold change: -0.421

Sequence: RRIRCRPPRLPRPRPRPYDHPRP
- shrunken log2 fold change: -0.797

Sequence: RRIRNRPPRLPRPRPRPCFQPRP
- shrunken log2 fold change: 0.012

Sequence: RRIRFRPPRLPRPRPRPYFFPRP
- shrunken log2 fold change: -0.544

Sequence: RRIRLRPPRLPRPRPRPVLRPRP
- shrunken log2 fold change: -0.113

Sequence: RRIRNRPPRLPRPRPRPWKHPRP
- shrunken log2 fold change: -0.347

Sequence: RRIRIRPPRLPRPRPRPSVRPRP
- shrunken log2 fold change: -0.238

Sequence: RRIRCRPPRLPRPRPRPQGAPRP
- shrunken log2 fold change: -0.144

Sequence: RRIRTRPPRLPRPRPRPAADPRP
- shrunken log2 fold change: 0.453

Sequence: RRIRWRPPRLPRPRPRPDTPPRP
- shrunken log2 fold change: 0.126

Sequence: RRIRTRPPRLPRPRPRPFMKPRP
- shrunken log2 fold change: -0.661

Sequence: RRIRRRPPRLPRPRPRPNSRPRP
- shrunken log2 fold change: -0.0456

Sequence: RRIRTRPPRLPRPRPRPVMIPRP
- shrunken log2 fold change: -0.126

Sequence: RRIRNRPPRLPRPRPRPRSAPRP
- shrunken log2 fold change: 0.0888

Sequence: RRIRYRPPRLPRPRPRPREKPRP
- shrunken log2 fold change: 0.124

Sequence: RRIRGRPPRLPRPRPRPKDNPRP
- shrunken log2 fold change: 0.578

Sequence: RRIRKRPPRLPRPRPRPYFDPRP
- shrunken log2 fold change: -0.383

Sequence: RRIRFRPPRLPRPRPRPNDGPRP
- shrunken log2 fold change: -0.222

Sequence: RRIRYRPPRLPRPRPRPKLGPRP
- shrunken log2 fold change: -0.0974

Sequence: RRIRMRPPRLPRPRPRPDTGPRP
- shrunken log2 fold change: 0.112

Sequence: RRIRGRPPRLPRPRPRPDRGPRP
- shrunken log2 fold change: -0.123

Sequence: RRIRLRPPRLPRPRPRPKDPPRP
- shrunken log2 fold change: -0.221

Sequence: RRIRPRPPRLPRPRPRPTVRPRP
- shrunken log2 fold change: 0.0204

Sequence: RRIRPRPPRLPRPRPRPVTGPRP
- shrunken log2 fold change: -0.0902

Sequence: RRIRKRPPRLPRPRPRPDSRPRP
- shrunken log2 fold change: -0.188

Sequence: RRIRMRPPRLPRPRPRPPLHPRP
- shrunken log2 fold change: 0.691

Sequence: RRIRVRPPRLPRPRPRPASNPRP
- shrunken log2 fold change: -0.0943

Sequence: RRIRDRPPRLPRPRPRPHGPPRP
- shrunken log2 fold change: 0.0119

Sequence: RRIRRRPPRLPRPRPRPHCSPRP
- shrunken log2 fold change: -0.0453

Sequence: RRIRIRPPRLPRPRPRPFWCPRP
- shrunken log2 fold change: -0.014

Sequence: RRIRMRPPRLPRPRPRPIAYPRP
- shrunken log2 fold change: 0.0419

Sequence: RRIRMRPPRLPRPRPRPFNKPRP
- shrunken log2 fold change: -0.52

Sequence: RRIRTRPPRLPRPRPRPSAFPRP
- shrunken log2 fold change: -0.0245

Sequence: RRIRRRPPRLPRPRPRPEWTPRP
- shrunken log2 fold change: 0.0215

Sequence: RRIRWRPPRLPRPRPRPEFQPRP
- shrunken log2 fold change: 0.118

Sequence: RRIRVRPPRLPRPRPRPKYFPRP
- shrunken log2 fold change: -0.239

Sequence: RRIRDRPPRLPRPRPRPPAIPRP
- shrunken log2 fold change: 0.00372

Sequence: RRIRYRPPRLPRPRPRPKQGPRP
- shrunken log2 fold change: 0.0737

Sequence: RRIRERPPRLPRPRPRPPKRPRP
- shrunken log2 fold change: 0.259

Sequence: RRIRKRPPRLPRPRPRPRPQPRP
- shrunken log2 fold change: 0.865

Sequence: RRIRRRPPRLPRPRPRPEPHPRP
- shrunken log2 fold change: 0.315

Sequence: RRIRFRPPRLPRPRPRPKQRPRP
- shrunken log2 fold change: 0.384

Sequence: RRIRNRPPRLPRPRPRPGGFPRP
- shrunken log2 fold change: 0.144

Sequence: RRIRKRPPRLPRPRPRPVTNPRP
- shrunken log2 fold change: -0.0569

Sequence: RRIRVRPPRLPRPRPRPEILPRP
- shrunken log2 fold change: -0.0486
